These are literature values, as cited in paper PMC11827629.

This series deals with thrombin (as in cited literature). Nature of the series: cited. The settings on record: smFRET: 1x PBS with 2.5 mM PCA, 0.155 U/ul PCD, 1 mM Trolox, 5 nM Cy3-aptamer, 23 +/- 1 C, pH not stated; QCM: PBS, flow 45 +/- 3 ul/min, thrombin 0.06-16.5 nM.

Broadly, the Kd is the constant that tells how readily two partners part at equilibrium. NU172 (cited): the Kd was 3.2 nM. For the substance HD1 (cited), the Kd is 7.1 nM. As to RE31 (cited), the equilibrium dissociation constant (Kd) was 1.4 nM.
